Molecular target: T1, rhPTH(1-34)Gly35-OH, P01270
T1 chain: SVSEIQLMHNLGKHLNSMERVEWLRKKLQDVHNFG

B1: peptidylglycine alpha-amidating monooxygenase expressed by cell line UGL 73-26/M (protein)
chain: FRSPLSVFKRFKETTRSFSNECLGTIGPVTPLDASDFALDIRMPGVTPKESDTYFCMSMRLPVDEEAFVIDFKPRASMDTVHHMLLFGCNMPSSTGSYWFCDEGTCTDKANILYAWARNAPPTRLPKGVGFRVGGETGSKYFVLQVHYGDISAFRDNHKDCSGVSVHLTRVPQPLIAGMYLMMSVDTVIPPGEKVVNADISCQYKMYPMHVFAYRVHTHHLGKVVSGYRVRNGQWTLIGRQNPQLPQAFYPVEHPVDVTFGDILAARCVFTGEGRTEATHIGGTSSDEMCNLYIMYYMEAKYALSFMTCTKNVAPDMFRTIPAEANIPIPVKPDMVMMHGHHKEAENKEKSALMQQPKQGEEEVLEQDFHVEEELDWPGVYLLPGQVSGVALDSKNNLVIFHRGDHVWDGNSFDSKFVYQQRGLGPIEEDTILVIDPNNAEILQSSGKNLFYLPHGLSIDTDGNYWVTDVALHQVFKLDPHSKEGPLLILGRSMQPGSDQNHFCQPTDVAVEPSTGAVFVSDGYCNSRIVQFSPSGKFVTQWGEESSGSSPRPGQFSVPHSLALVPHLDQLCVADRENGRIQCFKTDTKEFVREIKHASFGRNVFAISYIPGFLFAVNGKPYFGDQEPVQGFVMNFSSGEIIDVFKPVRKHFDMPHDIVASEDGTVYIGDAHTNTVWKFTLTEKMEHRSV
In the case of B1, the “overall yield of rhPTH(1-34)-NH2 from enzymatic amidation (preparative reaction followed by CEX and RP purification)” value is reported as “yielding 11.8 grams (95% overall yield from amidation) of rhPTH(1-34)-NH2”.
